This note sets out measurements from patent US20050100965A1.

Experiment [1] concerns the target (4C/A)-huIL-18 (human) (UniProt Q14116). As to the kind of experiment: Biacore.
The next experiment addresses NEM-huIL-18 (human) (UniProt Q14116). Briefly: Biacore.
The target of experiment [2] is (4C/A)-huIL-18 (human) (UniProt Q14116). As to the kind of experiment: cell-based or functional assay.
Experiment [3] concerns the target natural human IL-18 (human) (UniProt Q14116). As to the kind of experiment: cell-based or functional assay.
Experiment [4] concerns the target (4C/A)-huIL-18 (human) (UniProt Q14116). Briefly: Biacore, (4C/A)-HuIL-18.
The target of experiment [5] is 125I labeled rhuIL-18 (human) (UniProt Q14116). As to the kind of experiment: Receptor Binding Assay: inhibition of 125I-rhu-IL-18 binding to IL-18Rαβ on TNF-treated KG-1 cells.

In turn, “IL-18BP-Fc (from UniProt O95998 31-194) (Fc fusion)” displayed a dissociation constant (Kd) with (4C/A)-huIL-18 (human) [1] of 0.135 nM. Further, the Kd with NEM-huIL-18 (human) came out at 0.098 nM. Moreover, the KG-1, Neutralization Potency in vitro (IC50, nM) with (4C/A)-huIL-18 (human) [2] came to 0.03 nM. The substance also gave a WBA, Neutralization Potency in vitro (IC50, nM) in experiment [3] of 5.7 nM. Also, in the experiment with (4C/A)-huIL-18 (human) [4], the Kd came to 0.19 nM, the koff was 2.6e-05 s⁻¹ and the kon came out at 140000 M⁻¹ s⁻¹. In addition, the IC50 in experiment [5] came out at 1 nM.
